According to US20250034271A1 (EUCURE BEIJING BIOPHARMA, published 2025):
Changes are numbered by the printed parent chain.

B1: 4H6-H3K2-IgG4 (antibody, V domains shown)
VH: EVQLQESGPGLVKPSQTLSLTCTVSGDSVSSGYWNWIRKHPGKKLEYMGFISYSGSTYYTPSLKSRITISRDTSKNQFSLKLSSVTAADTAVYFCARFRRYDDGVDYWGQGTLVTVSS
VL: DIQMTQSPSAMSASVGDRVTITCRASHEISGYLSWIQQKPGGTIKRLINAASTLASGVPSRFSGSRSGTEFTLTISSLQPEDFADYYCLQYSSYPWTFGGGTKLEIK
notes: Humanized
B2: 4H6-H4K2-IgG4 (antibody, V domains shown)
VH: B1 VH with H40F
VL: B1 VL
notes: Humanized
B3: 6A7-H3K3-IgG4 (antibody, V domains shown)
VH: QVQLVQSGAEVKKPGASVKVSCKASGYTFISYYIYWVRQAPGQGLEWIGGINPRNGGTNFNEKFKSRATLTVDTSISTAYMELSRLRSEDTAVYYCTRHGNGVYWGQGTTVTVSS
VL: DVVMTQSPLSLPVTLGDPASISCRSSQSLLHSNGNTYLHWYQQRPGQSPNHLIYQVSNRFSGVPDRFSGSGSGTDFTLKISRVEAEDVGVYFCSQTTHVPWTFGGGTKLEIK
notes: Humanized
B4: 6A7-H4K2-IgG4 (antibody, V domains shown)
VH: B3 VH with V20L, R38K, V111L
VL: B3 VL with D17Q, L109V
notes: Humanized
B5: 6A7-H3K2-IgG4 (antibody, V domains shown)
VH: B3 VH
VL: B3 VL with D17Q, L109V
notes: Humanized
B6: 6A7-H4K1-IgG4 (antibody, V domains shown)
VH: B3 VH with V20L, R38K, V111L
VL: B3 VL with D17Q, Y41F, N50R, F92Y, L109V
notes: Humanized
B7: 6A7-H4K3-IgG4 (antibody, V domains shown)
VH: B3 VH with V20L, R38K, V111L
VL: B3 VL
notes: Humanized
B8: 4H6-mHvKv-IgG1 (antibody, V domains shown)
VH: EVKLQESGPSLVKPSQTLSLTCSVTGDSVSSGYWNWIRKFPGNKLEYMGFISYSGSTYYTPSLKSRISITRDTSKNQFYLQLNSVTTEDTATYFCARFRRYDDGVDYWGQGTTLTVSS
VL: DIQMTQSPSSLSASLGERVSLTCRASHEISGYLSWIQQKPDGTIKRLINAASTLASGVPKRFSGSRSGSEYSLTINSLESEDFADYYCLQYSSYPWTFGGGTKLEIK
notes: Chimeric

Each binder was assayed against T1, Histidine-tagged mfCD40 protein (mfCD40-His), Macaca fascicularis (Macaca fascicularis, UniProt G7PG38 21-193) (assay: SPR, Biacore T200; antibody on Protein A chip, mfCD40-His injected; 1:1 fit).
T1 construct: not shown: histidine tag
Protocol: The binding affinity of the anti-hCD40 antibodies with mfCD40 (Macaca fascicularis) were measured using surface plasmon resonance (SPR) using Biacore (Biacore, INC, Piscataway N.J.) T200 biosensor equipped with pre-immobilized Protein A sensor chips.
Anti-hCD40 antibodies were purified. The antibodies (0.5 μg/mL) were injected into Biacore T200 biosensor at 10 μL/min for about 18-26 seconds to achieve to a desired protein density (about 44-58 response units (RU)). […] Dissociation was monitored for 300-600 seconds. The chip was regenerated after the last injection of each titration with Glycine (pH 2.0, 30 μL/min for 12 seconds).
In the case of B1, the Kd is reported as 33.6 nM, the koff is reported as 0.0192 s⁻¹ and the kon is reported as 570000 M⁻¹ s⁻¹.
Work on B2 yielded a Kd of 29.7 nM, a koff of 0.0169 s⁻¹ and a kon of 568000 M⁻¹ s⁻¹.
In the case of B3, the Kd is reported as 0.871 nM, the koff is reported as 0.000201 s⁻¹ and the kon is reported as 231000 M⁻¹ s⁻¹.
B4 gave a Kd of 3.96 nM, a koff of 0.000787 s⁻¹ and a kon of 199000 M⁻¹ s⁻¹.

What follows are binders tested against T2, Histidine-tagged human CD40 protein (hCD40-His) (human, UniProt P25942 21-193) (assay: SPR, Biacore T200; antibody on Protein A chip, hCD40-His injected; 1:1 fit).
T2 construct: not shown: histidine tag
T2 sequence (P25942 21-193 limits assumed): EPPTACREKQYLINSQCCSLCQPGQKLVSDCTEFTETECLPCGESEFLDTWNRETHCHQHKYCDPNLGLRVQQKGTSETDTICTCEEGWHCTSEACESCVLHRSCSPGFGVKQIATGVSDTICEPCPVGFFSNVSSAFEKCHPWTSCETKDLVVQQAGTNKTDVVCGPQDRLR
Protocol: The binding affinity of the anti-hCD40 antibodies were measured using surface plasmon resonance (SPR) using Biacore (Biacore, INC, Piscataway N.J.) T200 biosensor equipped with pre-immobilized Protein A sensor chips.
Anti-hCD40 antibodies were collected by transfecting CHO-S cells and then purified. The antibodies (1 μg/mL) were injected into Biacore T200 biosensor at 10 μL/min for about 24-33 seconds to achieve to a desired protein density (about 44-57 response units (RU)). […] Dissociation was monitored for 300 seconds. The chip was regenerated after the last injection of each titration with Glycine (pH 2.0, 30 μL/min for 12 seconds).
For B1, the Kd was 53.6 nM, the koff was 0.0215 s⁻¹ and the kon was 401000 M⁻¹ s⁻¹.
B2 gave a Kd of 48.7 nM, a koff of 0.0191 s⁻¹ and a kon of 392000 M⁻¹ s⁻¹.
B5 gave a Kd of 5.74 nM, a koff of 0.000371 s⁻¹ and a kon of 64600 M⁻¹ s⁻¹.
In the case of B3, the Kd is reported as 2.9 nM, the koff is reported as 0.000356 s⁻¹ and the kon is reported as 123000 M⁻¹ s⁻¹.
B6 showed a Kd of 23.9 nM, a koff of 0.000572 s⁻¹ and a kon of 23900 M⁻¹ s⁻¹.
B4 showed a Kd of 3.06 nM, a koff of 0.000322 s⁻¹ and a kon of 105000 M⁻¹ s⁻¹.
B7 showed a Kd of 3.49 nM, a koff of 0.000373 s⁻¹ and a kon of 107000 M⁻¹ s⁻¹.
B8 showed a Kd of 36.5 nM, a koff of 0.0205 s⁻¹ and a kon of 561000 M⁻¹ s⁻¹.
